Patent US20230330257A1 (BEIJING TIANNUOJIANCHENG PHARMA TECH, published 2023)
Where a chain is given by its changes, count along the chain named.

T1: human CD20 (human, UniProt P11836 1-297)
T1 construct: whole, on cells; also called CD20 receptor; CHO-human CD20 (clone 3G6)
T1 sequence (looked up): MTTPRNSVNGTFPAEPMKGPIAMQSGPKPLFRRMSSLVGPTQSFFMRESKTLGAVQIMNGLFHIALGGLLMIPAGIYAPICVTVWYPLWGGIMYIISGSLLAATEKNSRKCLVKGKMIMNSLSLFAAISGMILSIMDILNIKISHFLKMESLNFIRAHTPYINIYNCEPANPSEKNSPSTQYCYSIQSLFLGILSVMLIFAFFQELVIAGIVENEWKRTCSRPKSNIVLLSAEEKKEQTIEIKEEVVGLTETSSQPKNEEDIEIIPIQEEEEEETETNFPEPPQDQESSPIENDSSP

T2: recombinant human CD3εγ-Fc heterodimer (human)
T2 construct: Extracellular regions of CD3γ and CD3ε as Fc hole/knob heterodimer; also called human CD3εγ protein; recombinant human CD3γ/ε antigen
T2 chain 1: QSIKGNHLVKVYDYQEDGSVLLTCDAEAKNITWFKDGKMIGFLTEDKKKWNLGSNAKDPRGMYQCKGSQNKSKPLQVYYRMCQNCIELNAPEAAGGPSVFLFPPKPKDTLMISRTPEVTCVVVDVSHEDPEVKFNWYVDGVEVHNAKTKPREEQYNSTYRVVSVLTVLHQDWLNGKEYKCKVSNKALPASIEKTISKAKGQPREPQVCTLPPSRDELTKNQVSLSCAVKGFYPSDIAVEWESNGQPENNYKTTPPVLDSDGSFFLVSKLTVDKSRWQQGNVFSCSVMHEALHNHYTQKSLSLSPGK
T2 chain 2: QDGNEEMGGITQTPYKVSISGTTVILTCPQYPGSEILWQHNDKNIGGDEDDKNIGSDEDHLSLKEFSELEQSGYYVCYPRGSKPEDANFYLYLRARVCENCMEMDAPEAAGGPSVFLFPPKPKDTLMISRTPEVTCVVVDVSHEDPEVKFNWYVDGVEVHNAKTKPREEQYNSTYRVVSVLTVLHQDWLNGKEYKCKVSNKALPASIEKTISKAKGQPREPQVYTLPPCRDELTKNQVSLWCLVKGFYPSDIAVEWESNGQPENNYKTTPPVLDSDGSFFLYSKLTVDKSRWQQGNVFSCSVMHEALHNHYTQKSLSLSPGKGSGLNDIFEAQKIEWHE

B1: Mab001 (antibody, V domains shown)
VH: QVQLVQSGAEVKKPGSSVKVSCKASGYTFTSYNMHWVRQAPGQGLEWMGAIYPGNGDTSYNQKFQGRVTLTADKSSSTAYMELSSLRSEDTAVYYCARSTYYGGDWYFNVWGQGTLVTVSS
VL: EIVLTQSPGTLSLSPGERATLSCRASSSVSYIHWFQQKPGQAPRPLIYATSNLASGIPDRFSGSGSGTDYTLTISRLEPEDFAVYYCQQWTSNPPTFGQGTKLEIK
notes: also called humanized Mab001 antibody; humanized anti-CD20 antibody
B2: Mab002 (antibody, V domains shown)
VH: B1 VH with N109D, V110Y
VL: B1 VL
notes: also called humanized Mab002 antibody; humanized anti-CD20 antibody
B3: Mab005 (antibody, V domains shown)
VH: EVQLLESGGGLVQPGGSLRLSCAASGFTFNDYAMHWVRQAPGKGLEWVSTISWNSGSIGYADSVKGRFTISRDNSKNTLYLQMNSLRAEDTAVYYCAKDIQYGNYYYGMDVWGQGTLVTVSS
VL: EIVLTQSPGTLSLSPGERATLSCRASQSVSSYLAWYQQKPGQAPRLLIYDASNRATGIPDRFSGSGSGTDFTLTISRLEPEDFAVYYCQQRSNWPITFGQGTKLEIK
notes: also called humanized Mab005 antibody; humanized anti-CD20 antibody
B4: Mab006 (antibody, V domains shown)
VH: B3 VH with L11V
VL: B3 VL
notes: also called humanized Mab006 antibody; humanized anti-CD20 antibody
B5: Mab004 (antibody, V domains shown)
VH: B3 VH with S75A, N77K
VL: B3 VL
notes: also called humanized Mab004 antibody; humanized anti-CD20 antibody
B6: Mab007 (antibody, V domains shown)
VH: B3 VH with L11V, V111Y
VL: B3 VL
notes: also called humanized Mab007 antibody; humanized anti-CD20 antibody
B7: aCD3-hVH9/VL2 (antibody, human IgG4, V domains shown)
VH: EVQLVESGGGLVQPGGSLRLSCAASGFTFNTYAMNWVRKAPGKGLEWVGRIRSKYNNYATYYADSVKDRFTISRDDSKNSLYLQMNSLKTEDTAVYYCVRHGNFGNSYVSWFAYWGQGTLVTVSS
VL: QAVVTQEPSLTVSPGGTVTLTCRSSTGAVTTSNYANWVQEKPGQAPRGLIGGTNKRAPWTPARFSGSLLGGKAALTLSGAQPEDEAEYYCALWYSNLWVFGGGTKLTVL
notes: Expressed with an antibody lambda light chain constant region and human IgG4 heavy chain constant regions CH1-CH3; also called humanized anti-CD3 antibody hVH9/VL2
B8: aCD3-hVH8/VL5 (antibody, human IgG4, V domains shown)
VH: B7 VH with V99A
VL: B7 VL with L77I, S78T, P82A, A91V
notes: Expressed with an antibody lambda light chain constant region and human IgG4 heavy chain constant regions CH1-CH3; also called aCD3-hVH8/VLS (so in the source)
B9: aCD3-hVH8/VL1 (antibody, human IgG4, V domains shown)
VH: B7 VH with V99A
VL: B7 VL with E40Q
notes: Expressed with an antibody lambda light chain constant region and human IgG4 heavy chain constant regions CH1-CH3; also called humanized anti-CD3 antibody hVH8/VL1
B10: aCD3-hVH1/VL5 (antibody, human IgG4, V domains shown)
VH: B7 VH with K39Q, G49S, S80T
VL: B7 VL with L77I, S78T, P82A, A91V
notes: Expressed with an antibody lambda light chain constant region and human IgG4 heavy chain constant regions CH1-CH3; also called humanized anti-CD3 antibody hVH1/VL5
B11: aCD3-hVH9/VL3 (antibody, human IgG4, V domains shown)
VH: B7 VH
VL: B7 VL with Q1E, R23E, T26D, R56E
notes: Expressed with an antibody lambda light chain constant region and human IgG4 heavy chain constant regions CH1-CH3; also called humanized anti-CD3 antibody hVH9/VL3
B12: aCD3-hVH9/VL1 (antibody, human IgG4, V domains shown)
VH: B7 VH
VL: B7 VL with E40Q
notes: Expressed with an antibody lambda light chain constant region and human IgG4 heavy chain constant regions CH1-CH3; also called humanized anti-CD3 antibody hVH9/VL1
B13: aCD3-hVH9/VL5 (antibody, human IgG4, V domains shown)
VH: B7 VH
VL: B7 VL with L77I, S78T, P82A, A91V
notes: Expressed with an antibody lambda light chain constant region and human IgG4 heavy chain constant regions CH1-CH3; also called humanized anti-CD3 antibody hVH9/VL5

biological target: T1, human CD20; assay: flow cytometry on Raji cells, Alexa Fluor 647 goat anti-human IgG Fc
Experimental: (§1) A lymphoma cell line Raji and Daudi cells in the logarithmic growth phase were taken, 200 μg/mL mouse IgG (Jackson ImmunoResearch) was added, and the mixture was blocked for 30 min. 5×10⁴ cells and 50 μL, of gradient-diluted antibody (the initial concentration of 200 nM, 5-fold dilution, a total of 8 gradients) were added to each well of a 96-well U-shaped plate, and incubated on ice for 45 min. After the cells were washed, 50 μL, of Alexa Fluro647-labelled goat anti-human IgG Fc (1: 300 dilution) was added to each well, and the mixture was incubated on ice for 45 min. 60 μL, of PI (Sigma, P4170) was added to each well, and the mixture was incubated for 5 min and detected by using a flow cytometer (iQue Screener).

Binder	binding result
B1	binds
B2	binds

biological target: T1, human CD20; assay: flow cytometry on Daudi cells, Alexa Fluor 647 goat anti-human IgG Fc
Experimental: as §1

Binder	EC50 (read off the curve) [nM]
B3	~10
B4	~10
B5	~10
B6	~10

Biological target: T2, recombinant human CD3εγ-Fc heterodimer
Assay: ELISA, human CD3εγ protein coated on the plate, HRP goat anti-human IgG Fc, A450
Experimental: Human CD3εγ protein was coated onto a plate and placed at 4° C. overnight.

Binder	EC50 (read off the curve) [nM]
B7	~0.6
B8	~0.6
B9	~0.6
B10	~0.6
B11	~0.6
B12	~0.6
B13	~0.5
